Here are results for one molecule from publication PMC10482377, “Septum site placement in Mycobacteria – identification and characterisation of mycobacterial homologues of Escherichia coli MinD” (Microbiology, 2023).

The target in this experiment is T1, M. tb ParB with C-terminal 6xHis-tag (M. tuberculosis, UniProt P9WIJ9 1-344).
T1 construct: not shown: 6xHis, C-terminal, kept
T1 sequence: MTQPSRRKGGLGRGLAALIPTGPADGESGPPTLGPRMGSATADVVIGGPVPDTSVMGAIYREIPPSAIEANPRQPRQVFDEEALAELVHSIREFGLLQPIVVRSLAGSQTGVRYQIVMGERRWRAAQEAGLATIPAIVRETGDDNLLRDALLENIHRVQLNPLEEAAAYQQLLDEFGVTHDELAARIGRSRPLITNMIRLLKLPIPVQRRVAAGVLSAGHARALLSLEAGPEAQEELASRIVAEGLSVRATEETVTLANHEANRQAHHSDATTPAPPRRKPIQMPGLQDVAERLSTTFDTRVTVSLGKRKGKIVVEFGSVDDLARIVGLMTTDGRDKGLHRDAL
As to the kind of experiment: pull-down; equimolar bait (GST-Rv1708) and prey (His-tagged) incubated O/N at 4 °C in PBS + 0.1 % Triton X-100, then GSH beads 4 h at 4 °C; washed; Western blot with anti-6xHis. The note with it: both partners purified. In general terms: A western blot detects proteins with antibodies after separation by electrophoresis.

B1: GST-Rv1708 (natural protein)
chain: MPAGLPGQASVAVRLSCDVPPDARHHEPRPGMTDHPDTGNGIGLTGRPPRAIPDPAPRSSHGPAKVIAMCNQKGGVGKTTSTINLGAALGEYGRRVLLVDMDPQGALSAGLGVPHYELDKTIHNVLVEPRVSIDDVLIHSRVKNMDLVPSNIDLSAAEIQLVNEVGREQTLARALYPVLDRYDYVLIDCQPSLGLLTVNGLACTDGVIIPTECEFFSLRGLALLTDTVDKVRDRLNPKLDISGILITRYDPRTVNSREVMARVVERFGDLVFDTVITRTVRFPETSVAGEPITTWAPKSAGALAYRALARELIDRFGM
notes: also called M. tb minD; not shown: GST, N-terminal, kept
On to B1, for which the binding result is on record as “binds”.
